The results in this text go back to the supplement of paper PMC12042874.

± gives the uncertainty stated by the source.

This data set is described as follows: amyloid nucleation score (Sup35N fusion, yeast selection) (log enrichment); library NNK1; higher = more nucleation; inactive = no reads after selection. The method, boiled down: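 Nucleation score: DiMSum log enrichment of output over input reads, centred on the mode score of non-aggregating sequences. Only sequences with at least 100 input reads were kept. Reads came from Illumina sequencing of plasmid inserts before and after 7 days of growth at 30°C without adenine and uracil, in psi-negative yeast expressing Sup35N fused to peptides of 20 random codons after 24 hours of induction with 100 μM copper sulfate.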
YVSYVCLDWM registered an amyloid nucleation score of 6.7 ± 0.068.

NARYYYQSAIADVI came in with an amyloid nucleation score of 0.64 ± 0.29.

Substance RKSDEGMKSPIGREIMGKSM yielded an amyloid nucleation score of 0.431 ± 0.9.

As to MDAFPEFLGVVFHSDDFGVP, the amyloid nucleation score was -0.209 ± 0.39.

RLASYHITVYRHTRSIVQ: the amyloid nucleation score turned out to be 0.612 ± 0.29.

Substance HHIRCRVRIQNNPS showed an amyloid nucleation score of 0.368 ± 0.55.

SCVYNWFIKVLPKVSTMSGD displayed an amyloid nucleation score of 0.41 ± 0.52.

Regarding YMDVTGDVK, the amyloid nucleation score was -0.067 ± 0.85.

Substance RSLCHAQRFGWMC returned an amyloid nucleation score of -1.7 ± 1.

Regarding DYNIVYYNLYNTYINNYQSF, the amyloid nucleation score amounted to 7.72 ± 0.048.

Take GFSSMGCSVRNSHTAHGGCG: the amyloid nucleation score came to 1.73 ± 0.17.

SVSYTPVLHCCYCIMKWNPW showed an amyloid nucleation score of 5.19 ± 0.062.

With TAILLNVFKCSIFWVALK, the amyloid nucleation score was -0.691 ± 0.72.

Consider RARGAIYTVT, for which the amyloid nucleation score was -0.894 ± 2.4.

As to RLVSFKCFCFLFLIDFMQGV, the amyloid nucleation score worked out at 0.495 ± 0.45.

With ILQSFSTVEHFEDLL, the amyloid nucleation score amounted to 0.58 ± 1.2.

REGLTFPRVLPIWHLFVSSD gave an amyloid nucleation score of -0.139 ± 0.32.

As for EMALKVVMWC, the amyloid nucleation score result is “inactive”.

SMDTLLHP displayed an amyloid nucleation score of -0.155 ± 0.23.

The substance VSYYITCRGKVETIALADRM registered an amyloid nucleation score of 0.088 ± 0.93.

NGRCKYLRQNIFSVLLIMRR registered an amyloid nucleation score of 0.324 ± 1.

Take FLNFPYMLRDCLMIRFIELE: the amyloid nucleation score result is “inactive”.

Regarding LSCPRNYWRSSLLVFMDGSQ, the amyloid nucleation score amounted to 0.319 ± 0.63.

As for ISECDICERR, the amyloid nucleation score was -0.236 ± 0.68.

For the substance IFFKLVLVWTFLLTYQAYWV, the amyloid nucleation score amounted to 0.174 ± 0.85.

IVLMLCV: the amyloid nucleation score is -0.097 ± 0.36.

YPRPLWANRRPC registered an amyloid nucleation score of -0.151 ± 0.66.

For VHKAGDFNVTAFVNSNVFVS, the amyloid nucleation score entry was “inactive”.

In turn, VPNYHAISYIVDLTMCSLFQ showed an amyloid nucleation score of 8.383 ± 0.057.

In turn, YRDTVGVYYRFIRGYWMCTW had an amyloid nucleation score of -0.396 ± 0.42.

The substance SHEGIIMLMLTHQFSW showed an amyloid nucleation score of 2.07 ± 0.14.

In turn, PHMMELSVDTKGNVLKVGSH gave an amyloid nucleation score of 0.055 ± 0.52.

The substance NCLCIMSPCLLPCWEWVSYR registered an amyloid nucleation score of 5.834 ± 0.055.

Take DTYKSPKHYRRL: the amyloid nucleation score was found to be 0.608 ± 0.64.

GTHTEYSQKTVLVDIFTELM: the amyloid nucleation score entry is “inactive”.

VKATLSFSQFLHVVSYWGF displayed an amyloid nucleation score of -0.342 ± 0.71.

GVSKCQDEYSGLGNRNYM registered an amyloid nucleation score of -1.28 ± 0.59.

Turning to RYHSPEYTARTLMG, the amyloid nucleation score was determined as 0.264 ± 0.44.

As for DYDTMSNFSDSALCTPIRCD, the amyloid nucleation score turned out to be 0.485 ± 0.35.

CSYPYGQSEDCGSRSGRGYA registered an amyloid nucleation score of 0.877 ± 1.

On to YSRISKRVSRKGQSRNCHSG, for which the amyloid nucleation score was -0.413 ± 0.52.

PSYLCYVIPPPCINLVPMYP yielded an amyloid nucleation score of -0.177 ± 0.23.

Substance FTVVLYLSVVLKFKDAGEEG registered an amyloid nucleation score of 4.09 ± 0.092.

In turn, YRCNT showed an amyloid nucleation score of -0.244 ± 0.32.

In turn, LSWES returned an amyloid nucleation score of -0.866 ± 0.73.

On to MLVAFAYFFGSHVRHWGFVW, for which the amyloid nucleation score turned out to be 0.224 ± 0.33.

As for FLGPIAIVGRHLMICIMQSH, the amyloid nucleation score was found to be 0.855 ± 0.43.

Substance INLGFLWTCARDAVFLYDLS came in with an amyloid nucleation score of 2.31 ± 0.17.

AALENAGWLMAMANKRPSKR showed an amyloid nucleation score of -0.614 ± 0.64.

NNMYTNVRVLKGRCLWVY returned an amyloid nucleation score of 0.376 ± 0.28.

The substance VVELASLEGGHELTNWVNLV gave an amyloid nucleation score of 0.231 ± 0.59.

In the case of RVLCICFEYINHRAGGSKSF, the amyloid nucleation score was -0.08 ± 0.95.

The substance LVFVFWLKVEPPMLSTCMSK had an amyloid nucleation score of -1.16 ± 2.7.

Consider VCRTPSLRHHTFDVYFWSDV, for which the amyloid nucleation score is -0.105 ± 1.4.

For the substance WITYHEFWRLTKGCLSFTDL, the amyloid nucleation score came out at 0.023 ± 0.55.

For the substance WVLTVVFVDKWREAYMYATF, the amyloid nucleation score result is “inactive”.

LHRNSTPFIWHRRIEVSLGN yielded an amyloid nucleation score of -0.201 ± 1.3.

As to EANMIYFLNGANLHRFFKHF, the amyloid nucleation score worked out at 1.59 ± 0.35.

GNIFAYGT displayed an amyloid nucleation score of -0.611 ± 0.76.

As to YCFSSSYVWHNRDGSINMFK, the amyloid nucleation score result was “inactive”.

In turn, TTIYRY returned an amyloid nucleation score of 0.234 ± 0.9.

For RRDSYFCVWYFWGPDEGCPF, the amyloid nucleation score is 4.46 ± 0.1.

The substance CVDRRV had an amyloid nucleation score of 0.203 ± 0.56.

As to FGLQWSSKAACVLTCKQSLR, the amyloid nucleation score result was “inactive”.

For YQTGYGGCGYCRLVRGCVKV, the amyloid nucleation score is -0.442 ± 0.33.

DYYLATCYLPYALNCLAFLN registered an amyloid nucleation score of -1.18 ± 0.97.

The substance LDAGH came in with an amyloid nucleation score of -1.56 ± 1.8.

VLSFDLVTVVGNKFLVWIKR displayed an amyloid nucleation score of 0.276 ± 0.52.

Turning to RLTLLRLVLV, the amyloid nucleation score was determined as 0.945 ± 0.51.

The substance HFCKYSQNIELRQALGCYFW had an amyloid nucleation score of 6.16 ± 0.065.

Substance IVDVVLSMGLLYLTSVNY showed an amyloid nucleation score of -0.369 ± 0.74.

On to WMNGGQRSVWMCCMGRMHPW, for which the amyloid nucleation score is 7.738 ± 0.054.

Substance WFSVDFNNHLWFQNSYSMWG yielded an amyloid nucleation score of 0.156 ± 0.43.

ILSIFLYWAILLRSCQYLYW showed an amyloid nucleation score of -0.949 ± 0.4.

LKRDSFWVLIKWTRLDMGVS displayed an amyloid nucleation score of 0.056 ± 0.37.

In turn, RFNYVYFINRNMNEPRRGSL displayed an amyloid nucleation score of 6.452 ± 0.061.

LKTSRMFLG came in with an amyloid nucleation score of -0.68 ± 0.39.

The substance RVVVCRWVDRYGIAASGAIT displayed an amyloid nucleation score of 0.643 ± 0.54.

As for WSRMGLAILRFFKYLS, the amyloid nucleation score worked out at 0.093 ± 0.36.

VVLNCYIYVIPA displayed an amyloid nucleation score of 3.39 ± 0.13.

For the substance SYTFSVYLVNWDGF, the amyloid nucleation score is 2.43 ± 0.26.

On to SAVTDQLMV, for which the amyloid nucleation score worked out at 0.119 ± 0.45.

Consider GRILYEAYTPVERVYAWCSA, for which the amyloid nucleation score entry was “inactive”.

In the case of VKTYRPVSRGAKNKVRLAQG, the amyloid nucleation score stood at 0.642 ± 0.49.

On to GWAGRVCNRGKTWDIDLRQR, for which the amyloid nucleation score is -0.7 ± 0.34.

SSSSYIYCYFFPQSMVMVFS registered an amyloid nucleation score of 3.66 ± 0.1.

The substance VYIHTWIRVKIWSSS registered an amyloid nucleation score of 1.96 ± 0.65.

The substance RCNSSSIEWTVCILFDLLFY returned an amyloid nucleation score of -0.122 ± 1.

The substance NIGVCQIFLDTGMGISVFLN gave an amyloid nucleation score of 6.06 ± 0.08.

EKWKKAAIWFFLSYWLAVWR came in with an amyloid nucleation score of -0.301 ± 1.2.

Turning to MTRVNLKDKHNVRILSFN, the amyloid nucleation score entry is “inactive”.

Regarding KLLSGRLDTFSGGGDYMCPV, the amyloid nucleation score result is “inactive”.

In the case of YLRKIRVLNMGAAAEKALLG, the amyloid nucleation score is 0.641 ± 0.68.

In turn, YMNNRLRWNRRHPYLSCFMS yielded an amyloid nucleation score of 1.1 ± 0.94.

DSTSDMLHLIIRTMISLISR yielded an amyloid nucleation score of -0.257 ± 0.35.

Substance NLLFAVMLVFSRVQVVFNNG had an amyloid nucleation score of -0.355 ± 0.25.

Regarding LAREAGR, the amyloid nucleation score result was “inactive”.

In turn, TEVWCIQLY gave an amyloid nucleation score of 0.787 ± 0.46.

In the case of NRVHKADHVTYY, the amyloid nucleation score result was “inactive”.

TIAGHYYLWS had an amyloid nucleation score of -0.291 ± 0.78.

Consider PQSFWNARCPCPLNRLNGVW, for which the amyloid nucleation score was -0.474 ± 0.34.

Substance QIAVWPSYFSGDIGDMSRKG had an amyloid nucleation score of 0.017 ± 0.56.
